# How the values were obtained:
# [1] = molecular target: T1, GDF8 (Homo sapiens, UniProt O14793); assay: Biacore ligand binding profile, ActRIIA-Fc:ALK4-Fc heterodimer vs homodimers, anti-Fc capture (Example 17, Table 14); conditions: ligand GDF8, Table 14
# T1 sequence (O14793 267-375): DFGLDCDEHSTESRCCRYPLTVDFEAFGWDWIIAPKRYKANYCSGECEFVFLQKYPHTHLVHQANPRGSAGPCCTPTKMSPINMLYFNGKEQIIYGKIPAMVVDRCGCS
# Method: (§1) A Biacore™-based binding assay was used to compare ligand binding selectivity of the ActRIIA-Fc:ALK4-Fc heterodimeric complex described above with that of ActRIIA-Fc and ALK4-Fc homodimeric complexes. The ActRIIA-Fc:ALK4-Fc heterodimer, ActRIIA-Fc homodimer, and ALK4-Fc homodimer were independently captured onto the system using an anti-Fc antibody. Ligands were injected and allowed to flow over the captured receptor protein. Results are summarized in Table 14 below, in which ligand off-rates (kd) most indicative of effective ligand traps are denoted in bold.
# [2] = molecular target: T2, BMP10 (Homo sapiens, UniProt O95393); assay: as above
# T2 sequence (O95393 317-424): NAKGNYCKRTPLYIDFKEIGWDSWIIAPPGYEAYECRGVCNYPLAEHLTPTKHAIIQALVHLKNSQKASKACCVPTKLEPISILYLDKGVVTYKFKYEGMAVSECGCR
# Method: as §1
# [3] = molecular target: T3, activin A (Homo sapiens, UniProt P08476); assay: as above; conditions: for ka / kd: ligand Activin A, Table 14
# T3 sequence (P08476 311-426): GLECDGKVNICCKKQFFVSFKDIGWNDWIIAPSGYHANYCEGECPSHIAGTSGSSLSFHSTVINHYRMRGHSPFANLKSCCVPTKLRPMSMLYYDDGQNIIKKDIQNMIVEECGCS
# Method: as §1
# [4] = molecular target: T4, BMP9 (Homo sapiens, UniProt Q9UK05); assay: as above; conditions: ligand BMP9, Table 14
# T4 sequence (Q9UK05 320-429): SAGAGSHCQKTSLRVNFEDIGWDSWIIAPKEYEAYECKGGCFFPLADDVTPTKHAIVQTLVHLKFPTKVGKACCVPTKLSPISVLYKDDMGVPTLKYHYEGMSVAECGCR
# Method: as §1
# [5] = molecular target: T5, activin AC (Homo sapiens, UniProt P08476+P55103); assay: as above; conditions: for ka / kd: ligand Activin AC, Table 14
# T5 sequence (P08476 311-426): T3 sequence (P08476 311-426)
# T5 sequence (P55103 237-352): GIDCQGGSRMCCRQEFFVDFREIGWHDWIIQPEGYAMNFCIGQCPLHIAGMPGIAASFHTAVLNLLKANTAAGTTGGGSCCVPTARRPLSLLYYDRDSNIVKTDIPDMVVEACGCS
# Method: as §1
# [6] = molecular target: T6, GDF3 (Homo sapiens, UniProt Q9NR23); assay: as above; conditions: ligand GDF3, Table 14
# T6 sequence (Q9NR23 251-364): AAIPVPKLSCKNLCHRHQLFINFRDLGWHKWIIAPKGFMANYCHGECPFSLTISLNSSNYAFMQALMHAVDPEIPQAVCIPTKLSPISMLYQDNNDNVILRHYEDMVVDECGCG
# Method: as §1
# [7] = molecular target: T7, activin AB (Homo sapiens, UniProt P08476+P09529); assay: as above; conditions: for ka / kd: ligand Activin AB, Table 14
# T7 sequence (P08476 311-426): T3 sequence (P08476 311-426)
# T7 sequence (P09529 293-407): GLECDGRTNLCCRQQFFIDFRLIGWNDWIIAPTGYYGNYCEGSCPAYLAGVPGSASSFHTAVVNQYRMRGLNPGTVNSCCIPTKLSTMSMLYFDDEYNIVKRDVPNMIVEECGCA
# Method: as §1
# [8] = molecular target: T8, BMP6 (Homo sapiens, UniProt P22004); assay: as above; conditions: ligand BMP6, Table 14
# T8 sequence (P22004 375-513): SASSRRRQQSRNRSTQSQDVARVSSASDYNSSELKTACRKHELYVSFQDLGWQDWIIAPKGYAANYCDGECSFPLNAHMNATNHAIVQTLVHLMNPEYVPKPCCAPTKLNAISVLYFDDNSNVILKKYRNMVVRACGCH
# Method: as §1
# [9] = molecular target: T9, GDF11 (Homo sapiens, UniProt O95390); assay: as above; conditions: for ka / kd: ligand GDF11, Table 14
# T9 sequence (O95390 299-407): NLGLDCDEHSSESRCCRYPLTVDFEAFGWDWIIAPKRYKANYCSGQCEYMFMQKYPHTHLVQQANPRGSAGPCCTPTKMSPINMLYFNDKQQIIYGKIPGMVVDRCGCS
# Method: as §1
# [10] = molecular target: T10, activin B (Homo sapiens, UniProt P09529); assay: as above; conditions: for activin B binding: Example 17; for ka / kd: ligand Activin B, Table 14
# T10 sequence (P09529 293-407): T7 sequence (P09529 293-407)
# Method: as §1
# [11] = molecular target: T11, BMP7 (Homo sapiens, UniProt P18075); assay: as above; conditions: ligand BMP7, Table 14
# T11 sequence (P18075 293-431): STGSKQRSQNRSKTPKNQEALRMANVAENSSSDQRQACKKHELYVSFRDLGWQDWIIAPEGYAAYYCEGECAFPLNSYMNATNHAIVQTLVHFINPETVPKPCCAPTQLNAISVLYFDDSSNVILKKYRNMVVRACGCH
# Method: as §1
# [12] = molecular target: T1, GDF8; assay: Similar Biacore binding assay (Example 1)
# [13] = molecular target: T10, activin B; assay: Similar Biacore binding assay (Example 1)
# [14] = Pharmacokinetic studies in rats; type: in vivo
# Method: The ActRIIA-hFc was very stable in pharmacokinetic studies. Rats were dosed with 1 mg/kg, 3 mg/kg, or 10 mg/kg of ActRIIA-hFc protein, and plasma levels of the protein were measured at 24, 48, 72, 144 and 168 hours. In a separate study, rats were dosed at 1 mg/kg, 10 mg/kg, or 30 mg/kg.
# [15] = Pharmacokinetics in cynomolgus monkeys; type: in vivo
# [16] = molecular target: T2, BMP10; assay: Similar Biacore binding assay (Example 1)
# [17] = molecular target: T8, BMP6; assay: Similar Biacore binding assay (Example 1)
# [18] = initial administration of 1 mg/kg
# [19] = initial administration of 10 mg/kg
Substance,ka [1] [M⁻¹ s⁻¹],kd [1] [s⁻¹],"kd ([2]; ligand BMP10, Table 14)",ka [3] [M⁻¹ s⁻¹],kd [3] [s⁻¹],ka [5] [M⁻¹ s⁻¹],kd [5] [s⁻¹],ka [6] [M⁻¹ s⁻¹],kd [6] [s⁻¹],ka [7] [M⁻¹ s⁻¹],kd [7] [s⁻¹],ka [8] [M⁻¹ s⁻¹],kd [8] [s⁻¹],ka [9] [M⁻¹ s⁻¹],kd [9] [s⁻¹],activin B binding [10],ka [10] [M⁻¹ s⁻¹],kd [10] [s⁻¹],ka [11] [M⁻¹ s⁻¹],kd [11] [s⁻¹],also measured
ActRIIA-Fc homodimer: ActRIIA-Fc homodimeric complex used as comparator in Example 17,1.4e+06,0.0014,0.0025 s⁻¹,1.4e+07,0.00062,2.2e+07,0.0079,1.5e+06,0.0036,2.8e+07,0.00026,2.7e+08,0.022,7.3e+07,0.00092,highest affinity,1.1e+07,0.00011,8.9e+06,0.033,"ka ([2]; ligand BMP10, Table 14): 2.9e+07 M⁻¹ s⁻¹; kd [4]: Transient*"
"ActRIIA-Fc:ALK4-Fc heterodimer: soluble heteromeric complex of extracellular domains of human ActRIIA and human ALK4, each separately fused to an Fc domain with a linker",1.8e+07,0.0028,Transient*,7.4e+06,0.00024,3.2e+06,0.00054,4.9e+07,0.0048,1.8e+07,0.00023,5.4e+06,0.012,3e+07,0.00065,reduced affinity (albeit still within the high-affinity range),9.5e+06,0.00048,2e+07,0.072,BMP10 binding ([2]; Example 17): markedly reduced binding; activin A binding ([3]; Example 17): enhanced binding; KD [4]: No binding; activin AC binding ([5]; Example 17): particularly enhanced binding; activin AB binding ([7]; Example 17): strong binding; GDF11 binding ([9]; Example 17): strong binding
ActRIIA-hFc: extracellular domain of human ActRIIa fused to a human Fc domain with a minimal linker; homodimer,,,,,,,,,,,,,,,,,,,,,"affinity for GDF8 [12]: high to moderate affinity; affinity for activin B [13]: high to moderate affinity; serum half-life [14]: 11 to 14 days; circulating levels of the drug after two weeks [14, 18]: 11 µg/mL; circulating levels of the drug after two weeks [14, 19]: 110 µg/mL; plasma half-life [15]: greater than 14 days; circulating levels of the drug [15, 18]: 25 µg/mL; circulating levels of the drug [15, 19]: 304 µg/mL; circulating levels of the drug ([15]; initial administration of 30 mg/kg): 1440 µg/mL; affinity for BMP10 [16]: high to moderate affinity; affinity for BMP6 [17]: high to moderate affinity"

# Reference: patent US20230129812A1, “COMPOSITIONS AND METHODS FOR TREATING PULMONARY HYPERTENSION” (Acceleron Pharma Inc., priority 2020, published 2023)
